Here are results for 41 sequences from the nanobody polyreactivity screen of Harvey et al. (2022).

The series can be described thus: yeast display, Sf9 membrane polyspecificity reagent, FACS + sequencing; frameworks hold sequencing errors. In a few lines: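 Polyreactivity labels are assigned by the sorting gate from which each nanobody was recovered. The gates were low and high (top ~1%), set on anti-HA fluorescence for expression and streptavidin fluorescence for reagent binding. Before sorting, galactose-induced (36–48 hours) yeast display cells were stained for 1 hour at 4 °C with 10% biotinylated, detergent-solubilized Sf9 membrane reagent.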
On to “QVQLVESGGGLVQAGGRLRISCAASGSTFQPYAMGWYRQAPGKERELVAAISWRGGSTYYADSVKGRFTISRDNAKNTVYLQMNSLKPEDTAVSYCAAYFYFRRGTDYDYWGQGTQVTVSS”, for which the “polyreactivity (PSR sort gate)” value is given as “high polyreactivity”.
Take “QVQLVESGGGLVQAGGRLRITCAASGRTFKTYAMGWYRPAPGKERELVAAISRRGGSTYFADSVKGRFTISRDNAKNTVYLQMNSLKPEDTAVYYCASGNSVGLGWGQGTQVTLSS”: the “polyreactivity (PSR sort gate)” value is “high polyreactivity”.
Turning to “QVQLVESGGGLVQAGGRLRLICAASGSTFVTNYMGWYRQAPGKERELVAAISSGTSTNYADSVKGRFTISRDNAKNSVYLPMNSLTPEDTAVYYCAADSLKRYDYWGQGTQVTVSS”, the “polyreactivity (PSR sort gate)” value was “low polyreactivity”.
Take “QVQLVESGGGLVQAGGRLRLRCAASGFILDTYAMGGYRQAAGNERELVAGITVRGGSTYYADSVKGRFTISRDNAKNTVYLQMNSLKPEDTAVYYCNAAQDRFGYRRSGYWYDYWGQGTQVTVSS”: the “polyreactivity (PSR sort gate)” value is on record as “low polyreactivity”.
The result for “QVQLVESGGGLVQAGGRLRLSCAAAGSIFSYTMGWYRQAPWKERELVAAIRRRGGSTYYADSVKGRFTISRDNAKNTVYLQMTSLKPEDTAVYYCAADGYQYRHRRFFYWGQGTQVTVSS” reads “high polyreactivity”.
For the sequence “QVQLVESGGGLVQAGGRLRLSCAASASIFRLYAMGWYRQAPGKERELVAAIRWRAGSTYYADSVKGRFTLSRDNAKNTVYLQMNSLKPEETAVNYCAADAISSAWYAKYDYWGQGTQVTGSS”, the “polyreactivity (PSR sort gate)” value is “high polyreactivity”.
To “QVQLVESGGGLVQAGGRLRLSCAASGFIFRRYAIGWYRQAPGKERELVAAINRGGRTYYADSVKGRFTISRDNAKNTVYLQMNSLKPEDTAVYYCAVGSVSSDDWGQGTQVTVSS” belongs “high polyreactivity”.
The result for “QVQLVESGGGLVQAGGRLRLSCAASGFIFSYYAMGWYRQAPGKERELVAAINYSGGRTYYADSVKGRFTISRDNAKNTVYLQMNSLKPEDTAVYYCNAVTFGRRAFDYWGQGTQVTVSS” reads “high polyreactivity”; that for “QVQLVESGGGLVQAGGRLRLSCAASGFIFYYYAMGWYRQAPGKERELVAVLTESASSTYYADSVKGRFTISRDNAKNTVYLQMNSLKPEDTAVYYCNADFWPYTGKYDYWGQGTQVTVSS”, “low polyreactivity”; that for “QVQLVESGGGLVQAGGRLRLSCAASGFTFGWNAMGWYRQAPGKEREMVASIYSGDSTYYADSVKGRFTISRDNAKNTVYLQMNSLKPEDTAVYYCATAPYVTSRRYGPYEYWGQGTQVTVSS”, “low polyreactivity”.
On to “QVQLVESGGGLVQAGGRLRLSCAASGFTFNVNALGGYRPAPGKERELVATITWSDGSTRYADSVKGRFTISRDNAKNTVYLQMNSLKPEDTAVYYCATRWSYPYSYRYYYWGQGTQVTVSS”, for which the “polyreactivity (PSR sort gate)” value was “low polyreactivity”.
The result for “QVQLVESGGGLVQAGGRLRLSCAASGFTFTRYAMGWYRQAPGKERELVAAISWSGGSTYYADSVKGRFTISRDNAKNTVYLQMNSLKPEDTAVYYCAKRGTVRQGGYGYWGQGTQVTVSS” reads “high polyreactivity”; that for “QVQLVESGGGLVQAGGRLRLSCAASGFTFYRYAMGWYRQAPGKVRQLVATISASGGSTYYADSVKGRFTISRDNAKNTVYLQMNSLKPEDTAVYYCAVRYKSWYGFNYWGQGTQVTVSS”, “high polyreactivity”; that for “QVQLVESGGGLVQAGGRLRLSCAASGFTLTRNAMGWYRQAPGKERELVAAISWSGGTTYYADSVKGRFTISRDNAKNTVYLQMNSLKPEDTAVYYCNTASLRAHYYYWGQGTQVTVSS”, “high polyreactivity”.
With “QVQLVESGGGLVQAGGRLRLSCAASGFTQGSYAMGWHRQAPGKEREFVAGITDSGGSTYYADSVKGRYTISRDNAKNTVYLQMNSLKPEDTAVYDCNADFAPWDKQDYPYDYDYWGQGTQVTVSS”, the “polyreactivity (PSR sort gate)” value is listed as “low polyreactivity”.
To “QVQLVESGGGLVQAGGRLRLSCAASGITFKRYAMGWYRQAPRKERELVAAISDIGGRTYYADSVKGRFSISRDNAKNTVYLQMYSLKPEDTAVYYCAADYYSPVDWYYYWGQGTQVTVSS” belongs “high polyreactivity”.
With “QVQLVESGGGLVQAGGRLRLSCAASGITFWTYAMGWYRQAPGKERELVARISKSGARTFYADSVKGRFTISRDNAKNTVYLQMNSLKPEDTAVYYCAADRGPRPVTWYDYWGQGTQVTVSS”, the “polyreactivity (PSR sort gate)” value is given as “high polyreactivity”.
To “QVQLVESGGGLVQAGGRLRLSCAASGITSDVYAMGWYRQAPGKERELVAAISSAGSTYYADSVKGRFTISRDNAKNTVYLQMNSLKPEDTAVYYCDAAGYPQTYLYYYWGQGTQVTVSS” belongs “low polyreactivity”; to “QVQLVESGGGLVQAGGRLRLSCAASGLTFYRNAMGWYRQAPGKERELVAAITTSGARTYYADSVKGRFTISRDNAKNTVYLRMNSLKPDVTAVYYCNAPVRRDVAYGYWGQGTQVTVSS”, “high polyreactivity”.
The result for “QVQLVESGGGLVQAGGRLRLSCAASGLTLRWYAMGWYRQAPGKERELVAVISGSGSTNYADSVKGRFTISRDNAKNTVYLQMNSLKPEDTAVYYCAAQSHLGTPQRFGYWGQGTQVTVSS” reads “low polyreactivity”; that for “QVQLVESGGGLVQAGGRLRLSCAASGNTFGINAMGWYRQAPGKEREFVAAITFGGGRTYYADSVKGRFTISRDNAKNTVYFQMNSLKPEDTAVYFCAARAPVVTYTWSSPRWWFDYWGQGTQVTVSS”, “high polyreactivity”; that for “QVQLVESGGGLVQAGGRLRLSCAASGRIFKRYAMGWYRQAPGKESELVAAISWRGGSTYYADSVKGRFTISRDNAKNTVYFQMNSLKPEDTAVYYCAAGYFSYRRYDYWGQGTQVTVSS”, “high polyreactivity”.
To “QVQLVESGGGLVQAGGRLRLSCAASGRIFSYAMGWYRHAPGNERELVGGISRSGGSTYYADSVKGRFTISRDNAKNTVYLQMNSQKPVDTAVYYCAADSSLSASEYDSWGQGTQVTVSS” belongs “high polyreactivity”; to “QVQLVESGGGLVQAGGRLRLSCAASGRIFVQYVMGWYRQAPGKERELVAAITGSDSTTYYADSVKGRFTISRDNAKNTVYLQMNSLKPEDTAVYYCNKDLWLQDDYWGQGTQVTVSS”, “low polyreactivity”; to “QVQLVESGGGLVQAGGRLRLSCAASGRIFWSNTMGWYRQAPGKERELVAAISGRGGSTYYPDSVKGRFTISRDNAKNTVYLQMNSLKPEDTAVYYCAAKPTRSRKIYEYWGQGTQVTVSS”, “low polyreactivity”.
Take “QVQLVESGGGLVQAGGRLRLSCAASGRIFYPYDMGWYRQEPGKERELVAAISRSDGITYYADSVKGRFTISRDNAKNTVYLQMKSLKPEDTPVYYCAADDPSGHYPDFEYWGQGTQVTVSS”: the “polyreactivity (PSR sort gate)” value is “low polyreactivity”.
The result for “QVQLVESGGGLVQAGGRLRLSCAASGRILYVYLMGWYRQAPGKERELGAAISRRGGGTYYADSVKGRFTISRDNAKNTVYLQMNSLKPEDTAVYYCATDQYYEYDYWGQGTQVTVSS” reads “low polyreactivity”; that for “QVQLVESGGGLVQAGGRLRLSCAASGRTFDDYAMGWYRQAPGKERELVAVITSGGRTKYADSVKGRFTISRDNAKNTVYLQMNSLKPEDTAVYYCAAREVHDRYGYWGQGTQVTVSS”, “high polyreactivity”.
As to “QVQLVESGGGLVQAGGRLRLSCAASGRTFFGYAMGWYRQAPGKERELVAAITSSGGRTYYADSVKGRFTISRDNAKNTVYLQMNSLKPEDTAVYYCNTVLSFRSVNIYRGRGDYWGQGTQVTVSS”, the “polyreactivity (PSR sort gate)” value is recorded as “high polyreactivity”.
Turning to “QVQLVESGGGLVQAGGRLRLSCAASGRTFGINAMGWYRQEPGKERELVASISSGGRTNYADSVKGRFTISRHNAKNTVYLQMNSLKPEDTAVYYCARSRLGRAYGRYDYWGQGTQVTVSS”, the “polyreactivity (PSR sort gate)” value is reported as “low polyreactivity”.
With “QVQLVESGGGLVQAGGRLRLSCAASGRTFGQNAMGWYRQAPGKERELVAVISSRGGSTYYADSVKGRFTISRDNAKNTVYLQMNSLKPEDTAVYYCAKARRKPGAVDYWGQGTQVTVSS”, the “polyreactivity (PSR sort gate)” value is “high polyreactivity”.
As for “QVQLVESGGGLVQAGGRLRLSCAASGRTFLVNAMGWYRQAPGKERELVAAISQRGGSTDYADSVKGRFTISRDNAKNTVYLQMNSLKPEDTAVYYCAVRWGYLYDYWGQVTQVTVSS”, the “polyreactivity (PSR sort gate)” value is given as “low polyreactivity”.
To “QVQLVESGGGLVQAGGRLRLSCAASGRTFRGNVMGWYRQAPGKEREFVAAITKSDGSTYYADSVKGRFTISRDNAKNTVYLQMNSLKPEDTAVYYCAARTGRTGWPWFRYDYWGQGTQVTVSS” belongs “low polyreactivity”.
To “QVQLVESGGGLVQAGGRLRLSCAASGRTFRWYAMGRYRQAPGKERELVADISSVGSTDYADSVKGRFTISRDNAKNTVYLQMNSLKPEDTAVYFCAADFSPRRYHNLSFGYWGQGTQVTVSS” belongs “low polyreactivity”.
The result for “QVQLVESGGGLVQAGGRLRLSCAASGRTFSNYAKGWYRQAPGKEREFVAGIRYNGGSTYYADSVKGRFTISRDNAKNTVYLQMKSLKPEDTAVYYCAARYSRSMDYWGQGTQVTVSS” reads “high polyreactivity”; that for “QVQLVESGGGLVQAGGRLRLSCAASGRTFYGYAMGWYRQAPGKERELVASISRDGSTNYADSVNGRFTISRDNAKNTVYLQMHSLKPEDTAVYYCAADIWYYRYPIYYYSYDYWGPGTQVTVSS”, “low polyreactivity”.
Consider “QVQLVESGGGLVQAGGRLRLSCAASGRTFYVYTMGWYRQAPGPERELVAAIPSGGSTNYADSVKGRFTISRDNAKKTVYLQMNSLKPEDTAVYYCAARDSTVFKRYYYWGQGTQVTVSS”, for which the “polyreactivity (PSR sort gate)” value is “high polyreactivity”.
In the case of “QVQLVESGGGLVQAGGRLRLSCAASGRTFYYNGMGWYRQAPGKERELVAAITSGGTTSYADSVKGRFTISRDNAKNTVYLQMNSLKPEDTAVYYCNADYWAVNYDYWGQGTQVTVSS”, the “polyreactivity (PSR sort gate)” value is on record as “low polyreactivity”.
To “QVQLVESGGGLVQAGGRLRLSCAASGRTLGVYTMGWYRQAPGKERELVATISYNGGSTYYADSVKGRFTISRDNAKNTVYLQMNSLKPEDTAVYYCAKAYDTTLTYNYWGQGTQVTVSS” belongs “low polyreactivity”.
To “QVQLVESGGGLVQAGGRLRLSCAASGSIFDRNAMGLYRQAPGKESELVATITWYGVSTYYADSVKGRFTISRDNAKNTVYLQMNSLKPEDTAVYYCNADYSYRHWYDPGHYGEAMGYWGQGTQVTVSS” belongs “low polyreactivity”; to “QVQLVESGGGLVQAGGRLRLSCAASGSIFFHYAMGWYRQAPGKERERVAAITWDGGSTYYADSVKGRFTISRDNAKNTVYLQMNSLKPEDTAVYYCNADQDLSTDEDEYWGQGTQVTVLS”, “low polyreactivity”.
